T1: wild-type poliovirus type 2 capsid (Poliovirus type 2, wild type; strain …, strain)
T1 construct: also called WTPV2; wild-type PV2; copies: + + +
T1 chain 1: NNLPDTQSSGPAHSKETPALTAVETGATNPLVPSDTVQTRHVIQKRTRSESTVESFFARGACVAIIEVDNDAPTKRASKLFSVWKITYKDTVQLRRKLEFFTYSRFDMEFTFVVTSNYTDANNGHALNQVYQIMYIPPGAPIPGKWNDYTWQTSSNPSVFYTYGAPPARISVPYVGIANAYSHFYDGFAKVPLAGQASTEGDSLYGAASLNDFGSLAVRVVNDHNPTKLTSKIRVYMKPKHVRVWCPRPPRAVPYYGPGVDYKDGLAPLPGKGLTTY
T1 chain 2: not shown
T1 chain 3: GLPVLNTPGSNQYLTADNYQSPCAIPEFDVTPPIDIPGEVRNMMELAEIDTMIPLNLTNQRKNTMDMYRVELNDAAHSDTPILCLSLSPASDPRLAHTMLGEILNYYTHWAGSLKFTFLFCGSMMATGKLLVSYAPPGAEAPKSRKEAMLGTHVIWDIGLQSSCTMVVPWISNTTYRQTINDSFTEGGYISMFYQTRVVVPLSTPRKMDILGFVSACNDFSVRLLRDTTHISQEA

T2: wild-type poliovirus serotype 2 capsid (Poliovirus type 2, wild type; strain …, strain)
T2 construct: also called WTPV2; wild-type PV2; copies: + + +
T2 chain 1: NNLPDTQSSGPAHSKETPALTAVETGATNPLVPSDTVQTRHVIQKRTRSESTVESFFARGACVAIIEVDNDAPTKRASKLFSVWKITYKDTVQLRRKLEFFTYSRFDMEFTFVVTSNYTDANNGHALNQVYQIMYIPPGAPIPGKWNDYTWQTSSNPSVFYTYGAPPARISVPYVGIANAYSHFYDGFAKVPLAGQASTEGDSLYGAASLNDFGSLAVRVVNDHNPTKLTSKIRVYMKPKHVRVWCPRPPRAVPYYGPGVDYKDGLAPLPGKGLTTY
T2 chain 2: not shown
T2 chain 3: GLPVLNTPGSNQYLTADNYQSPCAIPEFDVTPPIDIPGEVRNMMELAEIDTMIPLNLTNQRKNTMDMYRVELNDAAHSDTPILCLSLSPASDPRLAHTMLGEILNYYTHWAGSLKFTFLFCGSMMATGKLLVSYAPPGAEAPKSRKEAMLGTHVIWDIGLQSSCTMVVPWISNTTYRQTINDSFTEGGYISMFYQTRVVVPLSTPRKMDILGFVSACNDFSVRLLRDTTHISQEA


Key:
Conditions in all cases: both partners purified
[1] = target: T1, wild-type poliovirus type 2 capsid; experiment: cryo-EM structure
[2] = target: T3, Sabin poliovirus type 1 capsid (live) (Poliovirus type 1, Sabin (live), UniProt P03301, strain, biotin (EZ-Link Micro Sulfo-NHS-Biotinylation Kit) | biotin (EZ-Link Micro Sulfo-NHS-Biotinylation Kit) | biotin (EZ-Link Micro Sulfo-NHS-Biotinylation Kit)); experiment: BLI
T3 construct: also called SPV1; Sabin serotype 1; copies: + + +

[3] = target: T4, Sabin inactivated poliovirus type 2 capsid (Poliovirus type 2, Sabin strain …, strain); experiment: BLI
T4 construct: also called SIPV2; ISPV2; copies: + + +

[4] = target: T2, wild-type poliovirus serotype 2 capsid; experiment: cryo-EM structure

Row | Binder | binding result [1] | Kd [2] [µM] | koff [2] [s⁻¹] | kon [2] [M⁻¹ s⁻¹] | Kd [3] [µM] | koff [3] [s⁻¹] | kon [3] [M⁻¹ s⁻¹] | binding result [4]
1 | 9H2 fragment antigen-binding (Fab) (Fab, V domains shown, also called 9H2 Fab; Fab 9H2) VH: LVQSGAELKKPGASVKFSCQASGFTFTTYDIHWVRQAPGQGLEWMGMISPSRDSTIYAQKFQGRVTMTSDTSTSTVYMELTSLRSEDTALYYCATASRPSAWVFRSLYTYYYMDVWGTGTTVTVSS VL: QSALTQPASVSGSPGQSITISCTGTITDIGYYNYVSWYQQHPGKAPKLIIFDVTNRPSGVSDRFSGSKSGNTASLTISGLQAEDEGDYYCFSHRSNNIRVFGGGTKLTVL [9H2 fragment antigen-binding (Fab), listing 1 of 2 here] | binds | 936 | 1.05 | 1120 | 2.1 | 0.483 | 230000 | 
2 | 9H2 fragment antigen-binding (Fab) (Fab, V domains shown, also called 9H2 Fab; Fab 9H2) VH: LVQSGAELKKPGASVKFSCQASGFTFTTYDIHWVRQAPGQGLEWMGMISPSRDSTIYAQKFQGRVTMTSDTSTSTVYMELTSLRSEDTALYYCATASRPSAWVFRSLYTYYYMDVWGTGTTVTVSS VL: QSALTQPASVSGSPGQSITISCTGTITDIGYYNYVSWYQQHPGKAPKLIIFDVTNRPSGVSDRFSGSKSGNTASLTISGLQAEDEGDYYCFSHRSNNIRVFGGGTKLTVL [9H2 fragment antigen-binding (Fab), listing 2 of 2 here] |  |  |  |  |  |  |  | binds

— publication PMC10564760, “A human monoclonal antibody binds within the poliovirus receptor-binding site to neutralize all three serotypes” (Nature Communications, 2023)
